Results published in a protein production outcome set (Wang et al. 2014).

experiment: label from the status in PepcDB records

Sequence	protein production
SSETPAQCSIKQERISYTPPESPVPSYASSTPLHVPVPRALRMEEDSIRLPAHLRLQPIYWSRDDVAQWLKWAENEFSLRPIDSNTFEMNGKALLLLTKEDFRYRSPHSGDVLYELLQHILKQRKPRILFSPFFHPGNSIHTQPEVILHQNHEEDNCVQRTPRPSVDNVHHNPPTIELLHRSRSPITTNHRPSPDPEQRPLRSPLDNMIRRLSPAERAQGPRPHQENNHQESYPLSVSPMENNHCPASSESHPKPSSPRQESTRVIQLMPSPIMHPLILNPRHSVDFKQSRLSEDGLHREGKPINLSHREDLAYMNHIMVSVSPPEEHAMPIGRIADCRLLWDYVYQLLSDSRYENFIRWEDKESKIFRIVDPNGLARLWGNHKNRTNMTYEKMSRALRHYYKLNIIRKEPGQRLLFRFMKTPDEIMSGRTDRLEHLESQELDEQIYQEDEC	not failed
SSKPPPKPVKPGEGGQVKVFRALYTFEPRTPDELYFEEGDIIYITDMSDTNWWKGTSKGRTGLIPSNYVAEQAESIDNPLHEAAKRGNLSWLRECLDNRVGVNGLDKAGSTALYWACHGGHKDIVEMLFTQPNIELNQQNKLGDTALHAAAWKGYADIVQLFLAKGARTDLRNIEKKLAFDMATNAACASLLKKKQGTDAVRTLSNAEDYLDDEDSD	failed
SSKVIIPKIVGHRGVGKEGLAPENTLRSFVLCMERNIPYIETDLRVCKTGEIVLFHGTPEGTIPFYKDGTSRIGDLSLEELKRLDVGGGHTIPSLEELFVAIEEQKFNLKLNLELKGEEWKRKESGDHQRLLLLVEKYHMQERVDYCSFHHEALAHLKALCPDVKITYLFNYMGQPTPLDFVEQACYGDANGVSMLFHYLTKEQVCTAHEKGLSVTVWMPWIFDDSEEDWKKCLELQVDLICSNYPFGLMNFLSNISE	not failed
SSLICSISNEVPEHPCVSPVSNHVYERRLIEKYIAENGTDPINNQPLSEEQLIDIKVAHPIRPKPPSATSIPAILKALQDEWDAVMLHSFTLRQQLQTTRQELSHALYQHDAACRVIARLTKEVTAAREALATLKPQAGLIVPQAVPSSQPSVVGAGEPMDLGELVGMTPEIIQKLQDKATVLTTERKKRGKTVPEELVKPEELSKYRQVASHVGLHSASIPGILALDLCPSDTNKILTGGADKNVVVFDKSSEQILATLKGHTKKVTSVVFHPSQDLVFSASPDATIRIWSVPNASCVQVVRAHESAVTGLSLHATGDYLLSSSDDQYWAFSDIQTGRVLTKVTDETSGCSLTCAQFHPDGLIFGTGTMDSQIKIWDLKERTNVANFPGHSGPITSIAFSENGYYLATAADDSSVKLWDLRKLKNFKTLQLDNNFEVKSLIFDQSGTYLALGGTDVQIYICKQWTEILHFTEHSGLTTGVAFGHHAKFIASTGMDRSLKFYSL	not failed
SSPQDTCCPPDSWPALKVDYKPKGKLEDIGKGLKAYVVGNGPRAVIALNDVFGIESGHSKEICDAIADKGFTVVFPDVFRGKPLQVSDMSKLFDELPGWAKQFDYEPALRKDVVEVILPYLHDKLGFKSNDQIALAGFCWGAFMLFHLAGDTKLPGGPFACGVSFHPSVQIEGVFQRDPLQLIDRATCPQLLLPSAGEPDYMKEEGDAIKKLRAKPFGASCGVKTFPSMQHGWVNRGDRNDPQVVKEAQEALQLAVDFMMRHTKPKA	not failed
SSRKSGIGHEASLKRKAEEKLESYRKKIHMKNQAEEKAAEQFRMRLKNKQDEMKLEGDLRRSQRACQQLDVQKNIQVPREAWYWLRLEEETEEDEEEKEQDEDEYKSEDLSVLEKLQILTSYLREEHLYCIWCGTAYEDKEDLSSNCPGPTSADHD	failed
SSSQDVLIHSDDPCHPANLICTLCKQFFHNNWCTGTGGGISIKDPNTNYYYLAPSGVQKEKMIPEDLFVMDAQTLEYLRSPKLYKPSACTPLFLACYQKKNAGAIIHTHSQNAVICSLLFGDEFRIANIEQIKAIPSGKVDPVTKKPMALSFFDTLKIPIIENMAHEDELIDDLHKTFKDYPDTCAVIVRRHGIFVWGPTIDKAKIFNEAIDYLMELAIKMYQMGIPPDCGIGEEKKHLKMASP	not failed
STGSATTTPIDSLDDAYITPVQIGTPAQTLNLDFDTGSSDLWVFSSETTASEVDGQTIYTPSKSTTAKLLSGATWSISYGDGSSSSGDVYTDTVSVGGLTVTGQAVESAKKVSSSFTEDSTIDGLLGLAFSTLNTVSPTQQKTFFDNAKASLDSPVFTADLGYHAPGTYNFGFIDTTAYTGSITYTAVSTKQGFWEWTSTGYAVGSGTFKSTSIDGIADTGTTLLYLPATVVSAYWAQVSGAKSSSSVGGYVFPCSATLPSFTFGVGSARIVIPGDYIDFGPISTGSSSCFGGIQSSAGIGINIFGDVALKAAFVVFNGATTPTLGFASK	not failed
STMEKSVLGGQDQLRVRVTELEDEVRNLRKINRDLFDFSTRFITRPAK	not failed
STNLQEKGLVVSIVDTLMFDTGRAEVKPDFQKKLVEIGEILKTIDNYIRIEGHTDNTPISNSQYASNIELGSARSNNVEHLFIDVSKIPVTQMYTVSYADTRPVADNNSEAGKARNRRVDIVILNSKFNAVEQESSGK	failed
SVILFDRTFISPTEISDIYTKDAIGMKKADYLRKKLTSIFPEIEVQNLPDTINISNYLNDSDFDIIIVNSEHFNIKLLSELNDLLYKISTPYMYAWIEGSRGYIGPLIYPPDTSCFNCYLTWRFFGTFMEDKIKAINNYGSSGYIFPLDKIIGALTVLEVCKAIGSLGTPLFNKIILVEVLPTLTIRYIPILKDPKCNVCEG	failed
TAGKKAAMDRLSTQEGIISALAIDQRGALKKMIKALDVEPTDAQIETFKELVSKELTPYASAILLDPEYGLPAAKARDTEAGLLLAYEKTGYDATTPGRLPDLLADWSVLRLKEEGADAIKFLLYYDVDEDPEINHQKHVFIERLGSECAEEDLPFYLELVSYDAQIADATSLEYAKVKPHKVNEMMKEFSKPQYKVDVLKVEVPVNMNFVEGFAPAETAYTKEEAANYFLEQSQATDLPFIFLSAGVSTELFQETLRFAKEAGSTFNGVLCGRATWKNGVKPFVEAGETAACDWLKTEGRENIESLNEVIAATASSWHAKVQVNE	failed
TALIASGLVPQPFYFYGFLPRKKNEQKADLAKLARRHETVVLYESPFRVAKTLTLLATVCEGTRPIVACRELTKRYEEFARGTLAEMVTWAQDHQLKGEFVLLIGGNPDK	failed
TDYDNREKSADIALLKEMNSLRDIIENNSDWIWEVDVAGRYTFSSAKSIELLGRLPHEVIGKTPFDFMPKDEAHRVGKLFAEIAAERIPFAGLQNRNIRADGSEVLIESSGIPLFDHNGEFKGYRGIDRN	failed
TEALRMEREALLAEMGVAVREDGGTVGVFSPKKTPHLVNLNEDPLMSECLLYHIKDGVTRVGQVDMDIKLTGQFIREQHCLFRSIPQPDGEVVVTLEPCEGAETYVNGKLVTEPLVLKSGNRIVMGKNHVFRFNHPEQARLE	failed
TETSPDKWLIDGDTPLDEVERAIGYELPEGDYETISGLLFDHANALLKTGDVIEIPLDFEPEDYLNNTSPTQRILRITVLEVERNVPVKLALALLEDHPDNHPAPKENR	not failed
TGGLAIIQSMKHKLPPSERKLADYILAHPHKAIESTVNEISALANSSDAAVIRLCKSLGLKGFQDLKMRVAGDLAKPTFQGYRDIVPHEPLPSISEKTAGNAIQAI	failed
TIDLDYQRLALESLRFGHQKILEKIAKEKPKTNASNEDEDNLNASMIVTDTSTGKILALVGGIDYKKSAFNRATQAKRQFGSAIKPFVYQIAFDNGYSTTSKIPDTARNFENGNYSKNSEQNHAWHPSNYSRKFLGLVTLQEALSHSLNLATINLSDQLGFEKIYQSLSDMGFKNLPKDLSIVLGSFAISPIDAAEKYSLFSNYGTMLKPMLIESITNQQNDVKTFTPMETKKITSKEQAFLTLSVLMDAVENGTGSLARIKGLEIAGKTGTSNNNIDAWFIGFTPTLQSVIWFGRDDNTPISKGATGGVVSAPVYSYFMRNILAIEPSLKR	failed
TIDLNYQNKVESILKQYYGSELSSGRASFSEGMYAVAIEPSTGKVLAMAGLKNDHGNLVDDSLGTIAKNFTPGSVVKGATLSSGWENKVLRGNEVLYDQEIANIRSWFTRGLTPISAAQALEYSSNTYMVQVALRLMGQDYNTGDALTDRGYQEAMAKLRKTYGEYGLGVSTGLDLPESEGYVPGKYSLGTTLMESFGQYDAYTPMQLGQYISTIANNGNRLAPHVVSDIYEGNDSNKFAQLVRSITPKTLNKIAISDQELAIIQEGFYNVVNSGSGYATGTSMRGNVTTISGKTGTAETFAKNVNGQTVSTYNLNAIAYDTNRKIAVAVMYPHVTTDTTKSHQLVARDMIDQYISQFTGQ	failed
TIDPKAQKAAWDGLTDLKGARGAVVALDPQTGKVLAMVSAPSYDPSAFAGSTFKESDRFVELDKKKNKPLANRALRETYPPGSTFKILTAAAALEHGIVTDVDARTDAVSPYPLPQSTNKIGSEAGDAVCNKASMKTAMQHSCNNVFLDAASKLGQDKMRETAEKFGFNEDVYSDDFGDLLATKSLYPEDLDKPGTALTGMGQGSLTSTPMQMALVTAGIANDGKVMQPYVVDEVKGPDLDTLEKTEPAVMSEAVSAETAQKVQEMMEFTAKEGSARRAQIDGITVGGKTGTAQRGVDVNDEVPYGWFVSYGKKDDGSSVAVAVFIDPTDMDISRADISGGGLGAPIAKSVMKAVLK	failed
TIDRDIQWAAQNAITEQVEKSGADRGYVMVQDTRTGEILAMANSPGFDPNDLSKASSAALGNAALQDAYEPGSTAKVMSMAAVLEENVATPETHVVVPNRLHRGDRLFQDDIDHPTWNLTLNGVLAKSSNIGTILAAGQLGKTQKQANEVLYSYMRKFGIGLPTGLGFPGETSGILAPAAKWSTSQQYTIPFGQGVSINAMQAASVYSTIANGGVRVEPTLVRGTKGPDGRFTPAPRPKKTRVVSEKTAKTLAQMLESVVDDEEGTGAKARIPGYRVAGKTGTANRVDPATGKYHGYTSSFAGFAPADNPRITVYCAIQNATQGSYFGGQICGPIYKQVMEFALKTLQVPPTGAGAAHLPVTFTP	failed
TKALNFTYTLDSGVKGTLYQFPAEYTLLFINNPGCHACAEMIEGLKASPVINGFTAAKKLKVLSIYPDEELDEWKKHRNDFAKEWTNGYDKELVIKNKNLYDLRAIPTLYLLDKNKTVLLKDATLQKVEQYLAERG	not failed
TKDWKFTVSMNTAYNKNKIISLPYNGLPNNMQDAYQVYTGRKLADGTYERQWVGGYQEGQEYGVIYAFKSLGIYKSESEIPGNLIDRSTYTENGADAKVLYGPEAWAKLSDAEKEKGLPIQAGDVKWQDVNGDGVIDDYDRVKLGNTIPHWTGGFNINTSWKGLTLNCRLDYALGYWVHDWKTPWIMGNMQGTFNTISLVKDSWSESNPNGKYPVYGWADFLGKRNYDRISDINCYRGDYLAFREISLSYSLPQSWIHKSGLSKVDVSVTAQNLGYITAAKNMATPEYGVSQNGGYPLPRTVVLGLNVTF	failed
TLDAGLQRQLEDLALNWKSRLPPRSSLAMVVVDHTDMKVRGWVGSADITDDSRFGHIDMVSAVRSPGSVLKPFIYAMAMDEGLIHPASLLQDVPRRFSDYRPGNFDSGFHGPVSASEALVRSLNLPAVQVLEAYGPKRFAANLRNAGLPLTLPAGAEPNLSLILGGAGARLEDIVAAYSAFARHGKAARLRLKPSDPLTERALMSPGAAWIVRRILAGEAQPVPDASLPQAVPLAWKTGTSYGYRDAWAVGLNARYLIGIWTGRPDGTPVVGQFGFASAVPLLNQVNNLLLARPAMSRGGL	failed
TLDPSAQAIAEAALARGVQAHQGQYGAVIMLETRTGRILAAATYPPFDPGNWRGKPDTQERVKNRAFLDAYEPGSTMKALTIAAALNDGITTPDTVYETPMSRHVGGRWGHTIGDAVDHPSSLTTQQVLRYSSNVGMSHIVEGFTYQKLRDYLAAYGFGQPVNLTGAVTAQGILKPIDKWNDLERATNSFGQGVSGTTLQVAAAYNAVANDGLYVTPRLIEGAPAGERHEVVRAASARTVREMLKAIVVEGKFASLEGYDLSGKTGTAQVATENGYSNSVYKSTYAGFFPSDTPRVTVAVMVHGAQGEHHGSQVAAPIFREIASGMLSEWGTAPE	failed
